{"source": "patent US7572612B2", "about": "“Method of production of para-hydroxycinnamic acid using a thermostable TAL enzyme” (E.I. du Pont de Nemours and Company, priority 2006, dated 2009)", "molecules": {"B1": {"name": "PcTAL: thermostable tyrosine ammonia lyase (PAL/TAL) enzyme from Phanerochaete chrysosporium, SEQ ID NO:1 (protein, listed as Phanerochaete chrysosporium)", "chain": "MPSRIDYYTSSGNGYAQSRKSSAIYPASASTGHAAPSTERKPELLDKFVEAYDELQSYREGKPVIVDGHNLSIPAVAATARFGAAVVLDENPETHERVLQSRRVIVDKVSTQRSVYGVSTGFGGSADTRTSDPLQLGHALLQHQHVGVLPTQTESPLPALPLGDPLATTSMPEAWVRGAILIRMNSLIRGHSGVRWELIEKMGELLRENITPLVPLRGSISASGDLSPLSYIAGTLIGSPAIRVFDGPASYGARRILPSNIALANHGVAPIPLSSKEHLGILNGTAFSASVGALALNEAVHLSLLAQVCTAMGTEAMIGAVGSFDAFIHDTARPHPGQVEVARNVRTLLEDSQMAVKAEDEVHIAEDEGELRQDRYPLRTAAQFLGPQIEDILSAHETVTLECNSTTDNPLIDGETGTVHHGGNFQAMAVTNAMEKTRLAIHHIGKLLFAQATELINPMMNRGLPPNLAATDPSHNYFAKGVDIHLAAYVGELGFLASPVSSHIQSAEMHNQAVNSLALVSARYTISALDVLSLLTAAYLYVLCQALDLRAMHNDLQSSLSAIVRELLPKHFPSAAKRADALLPILERTIFRALNSSSSADCKARMVSVAASTTTPLVDFLSADAALASELANITAFRTELATRAADALTTLRTQYLEGARGAAPASKYLGKTRPVYEFVRVTLNVPMHGRENLHNFEMGPGVEDGIIGNNISTIYEAIRDGKMQNVVMQLVKSIKA"}}, "key": {"[1]": {"assay": "TAL activity temperature profile of purified enzyme", "type": "biochemical", "method": "Six grams of cell pellet, from the 10 liter fermentation of DPD5154 was resuspended in 6.0 mL Buffer A (10 mM Tris-HCl, pH 8.0, 200 μM EDTA) containing one EDTA-free protease inhibitor tablet (Roche Biosciences, Palo Alto, Calif.), 1.0 μg/ml Leupeptin, 1.0 μg/ml Pepstatin, 40 μg/ml Bestatin 5.0 mM CA. Cells were lysed by two passes through a French Pressure Cell at 20,000 PSI, and clarified by centrifugation at 12,000×g for 20 minutes. To the clarified supernatant, 1.0% streptomycin sulfate was added, and the suspension was gently mixed for 15 minutes at 4° C. and then clarified by centrifugation at 12,000×g for 20 minutes. The supernatant was heated at 60° C. for 20 min, and centrifuged again at 12,000×g for 20 minutes. This clarified crude extract sample was loaded onto a Q Sepharose FF 16/10 anion exchange column equilibrated with buffer A in an Akta FPLC system (Amersham, GE Healthcare, Piscataway, N.J.), and eluted with 10 column volumes of gradient from Buffer A, to Buffer A containing 1.0 M NaCl. Five ml fractions were collected from the column and assayed for TAL activity as described above. The fractions containing TAL activity were pooled. To the pooled anion exchange fractions containing TAL activity, saturated (NH4)2SO4 (4.0M) was added to final 30% saturation. After centrifugation at 12,000 g for 20 minutes, additional saturated (NH4)2SO4 (4.0M) was added to the supernatant fraction to a final 50% saturation. The mixture was centrifuged again at 12,000 g for 20 minutes, and the supernatant was removed. […] The purity of the PcTAL protein in the fractions was analyzed by SDS-PAGE. The fractions containing TAL activity with high purity as determined by SDS-PAGE were pooled. […]\nThe in vitro enzymatic assay using the purified PcTAL was performed as a comparison to the whole cell assay. The temperature profile of the purified PcTAL enzyme (from Example 6) was measured at temperatures varying from 25° C. to 60° C. in 100 mM CAPS buffer, pH 10, containing 1.0 mM tyrosine. […]"}, "[2]": {"assay": "Bioconversion of tyrosine to pHCA by cell suspensions in 50 ml tubes", "type": "cell-based, E. coli", "conditions": "pH 9.9, 0.5 g dcw/L, 20 g/L tyrosine (Example 11)", "method": "A suspension of DPD5154 cells in ˜75 ml of saline solution (8.5 g NaCl/L) with a cell concentration at an OD550 of 221.47 was used. The desired OD550 of 2.998 (0.989 g dcw/L) was achieved through serial dilution of the original sample. The cell suspension was equilibrated to 50° C., titrated to pH 9.9 and stored at 50° C. A tyrosine stock of 40 g/L at pH 9.9 was also prepared and stored at 50° C. Reactions measuring bioconversion of tyrosine to pHCA by the cell suspension were carried out at the following temperatures: 34° C., 39° C., 47° C., and 59° C. Each reaction was initiated by adding 5.0 ml of the cell suspension to 5.0 ml of the 40 g/L tyrosine solution in a 50 ml disposable conical tube. The final concentration of cells in each reaction was 0.5 g dcw/L. The final concentration of tyrosine in each reaction was 20 g/L (110 mM). All reactions were incubated at the temperatures indicated above with shaking at 180 rpm. Samples (750 μl) were taken at 30, 60, 90, 120 minutes, centrifuged (14,000×g for ˜8 minutes), the supernatants filtered through 0.2 um filters (Costar #8161), and the filtrates diluted using 50 mM Tris/HCl, pH 7.5. The filtrates were analyzed by HPLC for the amount of pHCA as described in General Methods. The optimum reaction temperature among those temperatures tested was determined to be 39° C., and the reaction slowed down dramatically at 59° C. […]\nTo determine the optimum pH (between pH 9.8-11.0) for the bioconversion reaction of tyrosine to pHCA at 42° C. using strain DPD5154, reactions were performed as described in Example 11. Tyrosine solutions (40 g/L concentration) were titrated to pH 9.8, 10.0, 10.2, 10.5, and 11.0 and stored at 42° C. Reactions were initiated by adding 5.0 ml of cell suspension to 5.0 ml of each tyrosine solution in a 50 ml disposable conical tube. The final concentration of cells in each reaction was 0.5 g dcw/L and the final concentration of tyrosine was 20 g/L (110 mM). Reactions were incubated at 42° C. with shaking at 180 rpm."}}, "data": [{"molecule": "B1", "values": [{"measurement": "TAL activity at 55° C.", "setting": "[1]; 55° C.", "result": 1479, "unit": "U/g"}, {"measurement": "TAL activity at 60° C.", "setting": "[1]; 60° C.", "result": 1431, "unit": "U/g"}, {"measurement": "maximum activity of purified enzyme relative to that at 25° C.", "setting": "[1]; about 55° C. vs 25° C.", "result": "about 3 fold"}, {"measurement": "pHCA (mM) formed in 2 h", "setting": "[2]; 34° C.", "result": 5.0, "unit": "mM"}, {"measurement": "pHCA (mM) formed in 2 h", "setting": "[2]; 39° C.", "result": 6.2, "unit": "mM"}, {"measurement": "pHCA (mM) formed in 2 h", "setting": "[2]; 47° C.", "result": 4.7, "unit": "mM"}, {"measurement": "pHCA (mM) formed in 2 h", "setting": "[2]; 59° C.", "result": 0.02, "unit": "mM"}]}]}
